According to patent US9290794B2, “Mutant protease biosensors with enhanced detection characteristics” (PROMEGA CORPORATION, priority 2010, dated 2016):

B1: TL-CP233-Caspase 8: TL Ppe fragments 233-543 and 4-232 with caspase-8 site linker … (SEQ ID NOs:57 and 58) (protein)
chain: MTSAILTVIPFHHGFGMMTTLGYFTCGFRVVLMHTFEEKLFLQSLQDYKVESTLLVPTLMAFLAKSALVEKYDLSHLKEIASGGAPLSKEIGEMVKKRFKLNFVRQGYGLTETTSAVLITPKGDAKPGSTGKIVPLHAVKVVDPTTGKILGPNEPGELYFKGPMIMKGYYNNEEATKAIIDNDGWLRSGDIAYYDNDGHFYIVDRLKSLIKYKGYQVAPAEIEGILLQHPYIVDAGVTGIPDEAAGELPAAGVVVQTGKYLNEQIVQDYVASQVSTAKWLRGGVKFLDEIPKGSTGKIDRKVLRQMLEKHTNGSSLETDGSSGDKNILYGPEPFYPLEDGTAGEQMFDALSRYAAIPGCIALTNAHTKENVLYEEFLKLSCRLAESFKKYGLKQNDTIAVCSENSLQFFLPVIASLYLGIIVAPVNDKYIERELIHSLGIVKPRIVFCSKNTFQKVLNVKSKLKSIETIIILDLNEDLGGYQCLNNFISQNSDSNLDVKKFKPYSFNRDDQVASIMFSSGTTGLPKGVMLTHKNIVARFSIAKDPTFGNAINPV
B2: TL-CP358-Caspase 8: TL Ppe fragments 358-543 and 4-354 with caspase-8 site linker … (SEQ ID NOs:59 and 60) (protein)
chain: MPGSTGKIVPLHAVKVVDPTTGKILGPNEPGELYFKGPMIMKGYYNNEEATKAIIDNDGWLRSGDIAYYDNDGHFYIVDRLKSLIKYKGYQVAPAEIEGILLQHPYIVDAGVTGIPDEAAGELPAAGVVVQTGKYLNEQIVQDYVASQVSTAKWLRGGVKFLDEIPKGSTGKIDRKVLRQMLEKHTNGSSLETDGSSGKNILYGPEPFYPLEDGTAGEQMFDALSRYAAIPGCIALTNAHTKENVLYEEFLKLSCRLAESFKKYGLKQNDTIAVCSENSLQFFLPVIASLYLGIIVAPVNDKYIERELIHSLGIVKPRIVFCSKNTFQKVLNVKSKLKSIETIIILDLNEDLGGYQCLNNFISQNSDSNLDVKKFKPYSFNRDDQVASIMFSSGTTGLPKGVMLTHKNIVARFSIAKDPTFGNAINPTSAILTVIPFHHGFGMMTTLGYFTCGFRVVLMHTFEEKLFLQSLQDYKVESTLLVPTLMAFLAKSALVEKYDLSHLKEIASGGAPLSKEIGEMVKKRFKLNFVRQGYGLTETTSAVLITPKGV

Test system: Caspase-8
Test: Caspase-8 biosensors transfected into HeLa cells, induction with TRAIL
Format: cell-based
Conditions: 1 μg/mL TRAIL, 37° C.
From the text: To evaluate whether the mutant thermostable luciferase biosensors of the present invention can be used to detect Caspase-8 activity in cells, biosensors were generated that contained the Caspase-8 cleavage site, LETDG (SEQ ID NO:15). Two different biosensors, TL-CP358-Caspase-8 and TL-CP233-Caspase-8 were used. As controls, the firefly (Photinus pyralis; Ppy) luciferase biosensors FF-CP234-Caspase-8 (M/Ppy residues 234-544/LETDG/Ppy residues 4-230/V), FF-CP359-Caspase-8 (M/Ppy residues 359-544/LETDG/Ppy residues 4-355/V), and TL-CP358-DEVD.
All biosensors were transfected into HeLa cells. Cells were plated at a (10,000/well) into a 96-well tissue culture plate. […]
After overnight incubation, the media was removed from the cells and replaced with CO2 Independent Media (Invitrogen Cat. No. 18045088) with 2 mM Luciferin EF (Promega Cat. No. E6551). Cells were pre-equilibrated with Luciferin EF for 2 hrs in a Varioskan luminometer with bioluminescence readings taken every 20 min. […] The cells were again incubated at 37° C. in a Varioskan luminometer for 500+ min with bioluminescence measured every 20 min.
FIGS. 5 and 7 identify the kinetic profiles of Caspase 8 activation by TRAIL over time at 37° C. […] Fold induction of activation was calculated by dividing the signal of samples with TRAIL over the signals without trail at a given time point. […]

| Molecule | detection of Caspase 8 activation by TRAIL |
| --- | --- |
| B1 | can detect Caspase 8 activation by TRAIL |
| B2 | can detect Caspase 8 activation by TRAIL |
